Key:
[1] = target: T1, npr1(dim)-HA (Arabidopsis thaliana, UniProt P93002 1-593); assay: co-immunoprecipitation of GFP- and HA-fused proteins with anti-HA beads, N. benthamiana, with and without SA
T1 construct: also called L49D/F53D/V56D/V83K; not shown: C-terminal HA tag from vector pLN462
T1 chain: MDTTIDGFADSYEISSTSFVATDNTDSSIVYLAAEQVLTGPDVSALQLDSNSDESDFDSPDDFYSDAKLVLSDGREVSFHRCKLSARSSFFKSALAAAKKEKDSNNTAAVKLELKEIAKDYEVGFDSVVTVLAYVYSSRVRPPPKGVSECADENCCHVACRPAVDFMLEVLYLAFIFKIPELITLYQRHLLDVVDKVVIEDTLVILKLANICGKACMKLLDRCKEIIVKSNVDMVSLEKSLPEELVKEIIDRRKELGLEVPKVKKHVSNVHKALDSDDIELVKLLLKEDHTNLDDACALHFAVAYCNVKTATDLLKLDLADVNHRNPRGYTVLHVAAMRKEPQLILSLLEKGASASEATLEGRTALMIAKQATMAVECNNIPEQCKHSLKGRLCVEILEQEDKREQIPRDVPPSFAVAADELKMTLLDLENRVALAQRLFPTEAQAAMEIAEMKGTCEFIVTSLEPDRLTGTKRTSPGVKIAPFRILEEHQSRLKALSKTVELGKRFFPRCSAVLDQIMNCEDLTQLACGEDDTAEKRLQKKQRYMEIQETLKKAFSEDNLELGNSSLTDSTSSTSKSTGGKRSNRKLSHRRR
Procedure: For plant transformations, the Agrobacterium tumefaciens strain GV3101 was transformed with plant binary vectors carrying the indicated transgenes. For stable expression in Arabidopsis, a floral dipping method was used. For transient expression in N. benthamiana, the Agrobacterium carrying the indicated construct was cultured over-night at 28° C. in LB broth medium supplemented with appropriate antibiotics: spectinomycin (100 μg ml-1), kanamycin (50 μg ml-1), gentamycin (50 μg ml-1) and rifampicin (25 μg ml-1). The obtained culture was re-inoculated at 1:10 into fresh growth medium with antibiotics and grown for another 4 h. Cells were then centrifuged at 1,600g for 10 min, and inoculum was prepared by resuspending cells to an OD600 of 1 in double-distilled water containing 200 μM acetosyringone (Sigma-Aldrich). The co-expression assays were per-formed with a 1:1 mixture of Agrobacteria inoculums. The inoculum was pressure-infiltrated into N. benthamiana leaves at the abaxial side using 1 ml syringe without the needle.
Recombinant protein analysis, co-immunoprecipitation and cell-free oligomerization were performed using total protein extracts from the transient expression assay in N. benthamiana as described previously. […]

[2] = target: the molecule itself; assay: size-exclusion chromatography (later elution than WT) and low-resolution cryo-EM (single-wing shape)
[3] = target: T2, TGA3 (Asn87-Thr384) (Arabidopsis thaliana, UniProt Q39234 Q39234:87-384); assay: EMSA; settings: tags: His10-MBP (PreScission site) N-terminal, C-terminal tandem Flag-HA; AT1G22070; E. coli; label: 6-FAM
T2 sequence: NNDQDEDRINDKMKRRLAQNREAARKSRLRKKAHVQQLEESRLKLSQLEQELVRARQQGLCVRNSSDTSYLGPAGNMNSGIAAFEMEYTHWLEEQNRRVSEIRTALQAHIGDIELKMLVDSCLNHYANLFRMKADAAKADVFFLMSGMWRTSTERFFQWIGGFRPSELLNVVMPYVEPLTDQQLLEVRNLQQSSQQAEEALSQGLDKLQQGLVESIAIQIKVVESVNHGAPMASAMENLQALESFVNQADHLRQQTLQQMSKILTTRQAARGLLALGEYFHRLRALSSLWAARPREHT
Procedure: (§1) The npr1(dim) mutant (L49D/F53D/V56D/V83K) was cloned into the pTrcHis vector (Thermo Fisher Scientific) as a His10-MBP fusion protein containing a PreScission protease site following MBP and a C-terminal Strep tag, and was expressed and purified similarly to the WT NPR 1 protein. Purified TGA3 (Asn87-Thr384) at a concentration of 0.6 μM and WT NPR1 or the npr1(dim) mutant at a concentration of 8 μM were used in the EMSA with the 6-fluorescein (6-FAM)-labelled oligonucleotide probes (200 nM) containing the LS5 and LS7 as-I cis-elements of the SA-responsive PRI gene promoter (LS5/LS7, 6-FAM-C-ggg[…]ggg) or DNA sequences with the two as-1 regions replaced with adenosines (LS5/LS7, 6-FAM-C-ggg[…]ggg), with the LS7 as-1 element replaced with adenosines (LS5/LS7, 6-FAM-C-ggg[…]-GAggg) or with the LS5 as-1 element replaced with adenosines (LS5/LS7, 6-FAM-C-ggg[…]ggg) as well as their complementary oligonucleotides (Integrated DNA Technologies). The uppercase bases indicate the LS5/LS7 sequence; the lowercase bases indicate overhangs outside the LS5/LS7 sequence; and bases replaced with adenosines are indicated with A's in the small capital font. Pairs of complementary DNA strands were annealed before the binding reaction. For each binding reaction, the desired protein combination was mixed with the target DNA probe together with 30 ng/μL of poly (dI-dC) (non-specific competitor, Thermo Fisher Scientific) in a binding buffer containing 20 mM HEPES (pH 8.0), 300 mM NaCl, 10% glycerol, 1 mM DTT and 0.2 mM SA. […] After electrophoresis, the gel was scanned with the Typhoon FLA 7000 imager (GE Healthcare).

[4] = target: NPR1 (Arabidopsis thaliana, UniProt P93002 SEQ:1-593); assay: EMSA; settings: tags: His10-MBP (PreScission site) N-terminal, C-terminal Strep tag; E. coli; chain copies: 2 (stated); label: 6-FAM
Procedure: as §1

[5] = target: TGA3 (Asn87-Thr384) + NPR1 complex (Arabidopsis thaliana, UniProt Q39234;P93002 Q39234:87-384,P93002:1-593); assay: EMSA; settings: tags: TGA3-Flag-HA; NPR1-Strep; chain copies: TGA3 dimer x2 + NPR1 dimer (stated); label: 6-FAM
Procedure: as §1

B1: npr1(dim)-GFP (other)
chain: MDTTIDGFADSYEISSTSFVATDNTDSSIVYLAAEQVLTGPDVSALQLDSNSDESDFDSPDDFYSDAKLVLSDGREVSFHRCKLSARSSFFKSALAAAKKEKDSNNTAAVKLELKEIAKDYEVGFDSVVTVLAYVYSSRVRPPPKGVSECADENCCHVACRPAVDFMLEVLYLAFIFKIPELITLYQRHLLDVVDKVVIEDTLVILKLANICGKACMKLLDRCKEIIVKSNVDMVSLEKSLPEELVKEIIDRRKELGLEVPKVKKHVSNVHKALDSDDIELVKLLLKEDHTNLDDACALHFAVAYCNVKTATDLLKLDLADVNHRNPRGYTVLHVAAMRKEPQLILSLLEKGASASEATLEGRTALMIAKQATMAVECNNIPEQCKHSLKGRLCVEILEQEDKREQIPRDVPPSFAVAADELKMTLLDLENRVALAQRLFPTEAQAAMEIAEMKGTCEFIVTSLEPDRLTGTKRTSPGVKIAPFRILEEHQSRLKALSKTVELGKRFFPRCSAVLDQIMNCEDLTQLACGEDDTAEKRLQKKQRYMEIQETLKKAFSEDNLELGNSSLTDSTSSTSKSTGGKRSNRKLSHRRR
notes: also called L49D/F53D/V56D/V83K; not shown: C-terminal eGFP from vector pK7FWG2
Q: Does B1 bind [1]?
A: Result: no binding

B2: npr1(dim) mutant (L49D/F53D/V56D/V83K) with C-terminal Strep tag, expressed in insect cells (other)
chain: MDTTIDGFADSYEISSTSFVATDNTDSSIVYLAAEQVLTGPDVSALQLDSNSDESDFDSPDDFYSDAKLVLSDGREVSFHRCKLSARSSFFKSALAAAKKEKDSNNTAAVKLELKEIAKDYEVGFDSVVTVLAYVYSSRVRPPPKGVSECADENCCHVACRPAVDFMLEVLYLAFIFKIPELITLYQRHLLDVVDKVVIEDTLVILKLANICGKACMKLLDRCKEIIVKSNVDMVSLEKSLPEELVKEIIDRRKELGLEVPKVKKHVSNVHKALDSDDIELVKLLLKEDHTNLDDACALHFAVAYCNVKTATDLLKLDLADVNHRNPRGYTVLHVAAMRKEPQLILSLLEKGASASEATLEGRTALMIAKQATMAVECNNIPEQCKHSLKGRLCVEILEQEDKREQIPRDVPPSFAVAADELKMTLLDLENRVALAQRLFPTEAQAAMEIAEMKGTCEFIVTSLEPDRLTGTKRTSPGVKIAPFRILEEHQSRLKALSKTVELGKRFFPRCSAVLDQIMNCEDLTQLACGEDDTAEKRLQKKQRYMEIQETLKKAFSEDNLELGNSSLTDSTSSTSKSTGGKRSNRKLSHRRR
notes: Full-length; His10-GST removed; Monomeric by size exclusion and low-resolution cryo-EM; not shown: C-terminal Strep tag
Q: Does B2 bind [2]?
A: Result: no binding

B3: PR1 promoter LS5/LS7 (dsDNA)
DNA 1: GGGCTATGACGTAAGTAAAATAGTGACGTAGAGAGGG
DNA 2: CCCTCTCTACGTCACTATTTTACTTACGTCATAGCCC
Q: Does B3 bind [3]?
A: Result: binds

Q: Does B3 bind [4]?
A: Result: no binding

Q: Does B3 bind [5]?
A: Result: binds

Source: patent US20240368617A1, “NPR1 VARIANT TO ENHANCE PLANT RESISTANCE TO BIOTIC AND ABIOTIC STRESSES AND METHOD THEREOF” (Duke University, published 2024)
